Test results taken from patent US11230581B2, “Peptides and combination of peptides for use in immunotherapy against ovarian cancer and other cancers” (Immatics Biotechnologies GmbH, priority 2015, dated 2022).

The substances below were run against HLA-A*02:01 (Homo sapiens, UniProt P04439, D140Y/D185E/D98H/E176V/E277Q/G131W/G231S/I119V/I121R/I166T/I218V/L300P/L318F/N151K/N90K/P208A/P217A/Q86G/Q94H/R138H/R169H/T345S) (assay: MHC binding assay (UV-ligand exchange, β2m ELISA, peptide exchange yield)). Settings: binding of HLA-class I restricted peptides to HLA-A*02:01, UV-ligand exchange.
Text: Candidate peptides for T cell based therapies according to the present invention were further tested for their MHC binding capacity (affinity). The individual peptide-MHC complexes were produced by UV-ligand exchange, where a UV-sensitive peptide is cleaved upon UV-irradiation, and exchanged with the peptide of interest as analyzed. Only peptide candidates that can effectively bind and stabilize the peptide-receptive MHC molecules prevent dissociation of the MHC complexes. To determine the yield of the exchange reaction, an ELISA was performed based on the detection of the light chain (β2m) of stabilized MHC complexes. The assay was performed as generally described in Rodenko et al. (Rodenko et al., 2006).
96 well MAXISorp plates (NUNC) were coated over night with 2 ug/ml streptavidin in PBS at room temperature, washed 4× and blocked for 1h at 37° C. in 2% BSA containing blocking buffer. […] Peptide-MHC monomers of the UV-exchange reaction were diluted 100 fold in blocking buffer. Samples were incubated for 1 h at 37° C., washed four times, incubated with 2 ug/ml HRP conjugated anti-β2m for 1h at 37° C., washed again and detected with TMB solution that is stopped with […]. Absorption was measured at 450 nm. Candidate peptides that show a high exchange yield (preferably higher than 50%, most preferred higher than 75%) are generally preferred for a generation and production of antibodies or fragments thereof, and/or T cell receptors or fragments thereof, as they show sufficient avidity to the MHC molecules and prevent dissociation of the MHC complexes.

**Q.** “585 (ALWDLAADKQTL; listed as Homo sapiens) [compound 585]” was tested. Which “Peptide exchange (MHC class I binding score, peptide exchange yield)” value (“Peptide exchange” below) did it give?
**A.** “++++” (≥75% = ++++)

**Q.** With “95 (SVIPQIQKV; listed as Homo sapiens) [compound 95]” as the substance, how does the “Peptide exchange” value read?
**A.** “+++” (≥50 = +++)

**Q.** For “180 (FQIDPHSGLVTV; listed as Homo sapiens) [compound 180]”, which “Peptide exchange” value is on record?
**A.** “++” (≥20% = ++)

**Q.** For “314 (ALIAEGIALV; listed as Homo sapiens) [compound 314]”, which “Peptide exchange” value is on record?
**A.** “+++” (≥50 = +++)

**Q.** With “77 (ILVEADGAWVV; listed as Homo sapiens) [compound 77]” as the substance, how does the “Peptide exchange” value read?
**A.** “++++” (≥75% = ++++)

**Q.** With “618 (VLFDSESIGIYV; listed as Homo sapiens) [compound 618]” as the substance, how does the “Peptide exchange” value read?
**A.** “+++” (≥50 = +++)

**Q.** “56 (KLYEGIPVLL; listed as Homo sapiens) [compound 56]” was tested. Which “Peptide exchange” value did it give?
**A.** “++++” (≥75% = ++++)

**Q.** For “412 (YLDDLNEGVYI; listed as Homo sapiens) [compound 412]”, which “Peptide exchange” value is on record?
**A.** “++” (≥20% = ++)

**Q.** For “121 (GVVDPRAISVL; listed as Homo sapiens) [compound 121]”, which “Peptide exchange” value is on record?
**A.** “++” (≥20% = ++)

**Q.** “71 (GILARIASV; listed as Homo sapiens) [compound 71]” was tested. Which “Peptide exchange” value did it give?
**A.** “+++” (≥50 = +++)

**Q.** “250 (ALSEEGLLVYL; listed as Homo sapiens) [compound 250]” was tested. Which “Peptide exchange” value did it give?
**A.** “+++” (≥50 = +++)

**Q.** For “369 (GLFPEHLIDV; listed as Homo sapiens) [compound 369]”, which “Peptide exchange” value is on record?
**A.** “+++” (≥50 = +++)

**Q.** How did the “Peptide exchange” value turn out when “562 (YLEELPEKLKL; listed as Homo sapiens) [compound 562]” was run?
**A.** “+++” (≥50 = +++)

**Q.** “401 (ILLDDTGLAYI; listed as Homo sapiens) [compound 401]” was tested. Which “Peptide exchange” value did it give?
**A.** “+++” (≥50 = +++)

**Q.** How did the “Peptide exchange” value turn out when “504 (GLSDGNPSL; listed as Homo sapiens) [compound 504]” was run?
**A.** “++” (≥20% = ++)

**Q.** With “609 (ALWKQLLEL; listed as Homo sapiens) [compound 609]” as the substance, how does the “Peptide exchange” value read?
**A.** “+++” (≥50 = +++)

**Q.** How did the “Peptide exchange” value turn out when “16 (VLFQGQASL; listed as Homo sapiens) [compound 16]” was run?
**A.** “+++” (≥50 = +++)

**Q.** Which “Peptide exchange” value does the source give for “577 (VMFEDGVLMRL; listed as Homo sapiens) [compound 577]” here?
**A.** “+++” (≥50 = +++)

**Q.** Which “Peptide exchange” value does the source give for “315 (YLQDVVEQA; listed as Homo sapiens) [compound 315]” here?
**A.** “+++” (≥50 = +++)

**Q.** “565 (ALQETPTSV; listed as Homo sapiens) [compound 565]” was tested. Which “Peptide exchange” value did it give?
**A.** “++” (≥20% = ++)

**Q.** “440 (ALADGVTMQV; listed as Homo sapiens) [compound 440]” was tested. Which “Peptide exchange” value did it give?
**A.** “++” (≥20% = ++)

**Q.** How did the “Peptide exchange” value turn out when “349 (SLTEYLQNV; listed as Homo sapiens) [compound 349]” was run?
**A.** “++++” (≥75% = ++++)

**Q.** “155 (RVANLHFPSV; listed as Homo sapiens) [compound 155]” was tested. Which “Peptide exchange” value did it give?
**A.** “+++” (≥50 = +++)

**Q.** With “9 (GAAKDLPGV; listed as Homo sapiens) [compound 9]” as the substance, how does the “Peptide exchange” value read?
**A.** “++” (≥20% = ++)

**Q.** “270 (LLLDEEGTFSL; listed as Homo sapiens) [compound 270]” was tested. Which “Peptide exchange” value did it give?
**A.** “++” (≥20% = ++)

**Q.** Which “Peptide exchange” value does the source give for “548 (ALWENPESGEL; listed as Homo sapiens) [compound 548]” here?
**A.** “++” (≥20% = ++)

**Q.** “85 (KMSELRVTL; listed as Homo sapiens) [compound 85]” was tested. Which “Peptide exchange” value did it give?
**A.** “+++” (≥50 = +++)

**Q.** With “429 (GLVNDLARV; listed as Homo sapiens) [compound 429]” as the substance, how does the “Peptide exchange” value read?
**A.** “++” (≥20% = ++)

**Q.** How did the “Peptide exchange” value turn out when “348 (ILLDVKTRL; listed as Homo sapiens) [compound 348]” was run?
**A.** “++++” (≥75% = ++++)

**Q.** “552 (GLLDLPFRVGV; listed as Homo sapiens) [compound 552]” was tested. Which “Peptide exchange” value did it give?
**A.** “++++” (≥75% = ++++)

**Q.** Which “Peptide exchange” value does the source give for “62 (VLLDVSAGQLLM; listed as Homo sapiens) [compound 62]” here?
**A.** “++++” (≥75% = ++++)

**Q.** With “51 (LLPDLEFYV; listed as Homo sapiens) [compound 51]” as the substance, how does the “Peptide exchange” value read?
**A.** “++++” (≥75% = ++++)

**Q.** For “241 (SLVEVNPAYSV; listed as Homo sapiens) [compound 241]”, which “Peptide exchange” value is on record?
**A.** “+++” (≥50 = +++)

**Q.** “395 (ALALGGIAVV; listed as Homo sapiens) [compound 395]” was tested. Which “Peptide exchange” value did it give?
**A.** “++++” (≥75% = ++++)

**Q.** For “337 (HLLSELEAAPYL; listed as Homo sapiens) [compound 337]”, which “Peptide exchange” value is on record?
**A.** “++++” (≥75% = ++++)

**Q.** For “394 (LLAVIGGLVYL; listed as Homo sapiens) [compound 394]”, which “Peptide exchange” value is on record?
**A.** “+++” (≥50 = +++)

**Q.** “35 (KINDTIYEV; listed as Homo sapiens) [compound 35]” was tested. Which “Peptide exchange” value did it give?
**A.** “+++” (≥50 = +++)

**Q.** For “61 (FLQGYQLHL; listed as Homo sapiens) [compound 61]”, which “Peptide exchange” value is on record?
**A.** “++++” (≥75% = ++++)

**Q.** With “116 (YHIDEEVGF; listed as Homo sapiens) [compound 116]” as the substance, how does the “Peptide exchange” value read?
**A.** “+” (≥10% = +)

**Q.** How did the “Peptide exchange” value turn out when “278 (QLLDVVLTI; listed as Homo sapiens) [compound 278]” was run?
**A.** “++” (≥20% = ++)

**Q.** “328 (ALNDQVFEI; listed as Homo sapiens) [compound 328]” was tested. Which “Peptide exchange” value did it give?
**A.** “+++” (≥50 = +++)

**Q.** “147 (SLLEAVSFL; listed as Homo sapiens) [compound 147]” was tested. Which “Peptide exchange” value did it give?
**A.** “+++” (≥50 = +++)

**Q.** Which “Peptide exchange” value does the source give for “187 (RQISIRGIVGV; listed as Homo sapiens) [compound 187]” here?
**A.** “+++” (≥50 = +++)

**Q.** Which “Peptide exchange” value does the source give for “393 (GLLDTQTSQVLTA; listed as Homo sapiens) [compound 393]” here?
**A.** “++” (≥20% = ++)

**Q.** With “300 (ALLGQTFSL; listed as Homo sapiens) [compound 300]” as the substance, how does the “Peptide exchange” value read?
**A.** “+++” (≥50 = +++)

**Q.** Which “Peptide exchange” value does the source give for “253 (GLDAATATV; listed as Homo sapiens) [compound 253]” here?
**A.** “++” (≥20% = ++)

**Q.** With “98 (LIIDQADIYL; listed as Homo sapiens) [compound 98]” as the substance, how does the “Peptide exchange” value read?
**A.** “+++” (≥50 = +++)

**Q.** How did the “Peptide exchange” value turn out when “38 (FLLEDDIHVS; listed as Homo sapiens) [compound 38]” was run?
**A.** “+++” (≥50 = +++)

**Q.** With “316 (ILLERLWYV; listed as Homo sapiens) [compound 316]” as the substance, how does the “Peptide exchange” value read?
**A.** “+++” (≥50 = +++)

**Q.** For “130 (FLWNGEDSALL; listed as Homo sapiens) [compound 130]”, which “Peptide exchange” value is on record?
**A.** “+++” (≥50 = +++)

**Q.** For “150 (RLWEEGEELEL; listed as Homo sapiens) [compound 150]”, which “Peptide exchange” value is on record?
**A.** “+++” (≥50 = +++)

**Q.** With “604 (SILDRDDIFV; listed as Homo sapiens) [compound 604]” as the substance, how does the “Peptide exchange” value read?
**A.** “+++” (≥50 = +++)

**Q.** How did the “Peptide exchange” value turn out when “382 (ALQNYIKEA; listed as Homo sapiens) [compound 382]” was run?
**A.** “++” (≥20% = ++)

**Q.** Which “Peptide exchange” value does the source give for “29 (KMLGIPISNILMV; listed as Homo sapiens) [compound 29]” here?
**A.** “+++” (≥50 = +++)

**Q.** With “561 (YLQLTQSEL; listed as Homo sapiens) [compound 561]” as the substance, how does the “Peptide exchange” value read?
**A.** “+++” (≥50 = +++)

**Q.** “246 (LLWEVVSQL; listed as Homo sapiens) [compound 246]” was tested. Which “Peptide exchange” value did it give?
**A.** “+++” (≥50 = +++)

**Q.** For “257 (SIFSAFLSV; listed as Homo sapiens) [compound 257]”, which “Peptide exchange” value is on record?
**A.** “+++” (≥50 = +++)

**Q.** How did the “Peptide exchange” value turn out when “162 (YQQAQVPSV; listed as Homo sapiens) [compound 162]” was run?
**A.** “+++” (≥50 = +++)

**Q.** How did the “Peptide exchange” value turn out when “542 (RVWDISTVSSV; listed as Homo sapiens) [compound 542]” was run?
**A.** “+++” (≥50 = +++)

**Q.** How did the “Peptide exchange” value turn out when “458 (SLIDKLYNI; listed as Homo sapiens) [compound 458]” was run?
**A.** “++” (≥20% = ++)

**Q.** How did the “Peptide exchange” value turn out when “153 (FLIANVLYL; listed as Homo sapiens) [compound 153]” was run?
**A.** “+” (≥10% = +)
